Test results reported in the DeepSol protein solubility set.

Test: soluble on expression in E. coli; label from the status in PepcDB or PDB records

With “MGHHHHHHSHMEDSHKSTTSETAPQPGSAVQGAHISHIAQQVSSLSESEESQDSSDSIGSSQKAHGILARRPSYRKILKDLSSEDTRGRKGDGENSGVSAAVTSMSVPTPIYQTSSGQYIAIAPNGALQLASPGTDGVQGLQTLTMTNSGSTQQGTTILQYAQTSDGQQILVPSNQVVVQTASGDMQTYQIRTTPSATSLPQTVVMTSPVTLTSQTTKTDDPQLKREIRLMKNREAARECRRKKKEYVKCLENRVAVLENQNKTLIEELKTLKDLYSNKSV” as the sequence, how does the “soluble on expression in E. coli” value read?
Its value is “soluble”.

Which “soluble on expression in E. coli” value does the source give for “WTKKTLGSLFELKKGEMLEKELLAPDGKYEYFNGGIKASGRTNEFNTFKNTISIIIGGSCGYVRLADKDYFCGQSSCTLTVLDPLEIDLKFAYYALKSQEEKITSLASGTTIKNIRLSDLKDLPIPLVKSIQDQRTIAHALSVFDL” here?
The value was “soluble”.

For “MKKQSCSHTTEDVPFPQANRRKFLQLAALGSSIGLFSVVSGISEARAEKKAGTLLLSCMDYRLMDEIERYMLRRGLYHNYDHIVLAGASLGAVTDKYPAWSRTFWDHLDLAVNLHEIHTVMVMDHRDCGAYKILLGEDYSKDTDRETAEHTIKLTQLKDMINKKYPKIEVETLLMGLNGEVEAIPTAVAKQG”, which “soluble on expression in E. coli” value is on record?
The value was “not soluble”.

For “TTVNETTPIAPAKVLPDAQTVTSVRHWTDTLFSFRVTRPQTLRFRSGEFVMIGLLDDNGKPIMRAYSIASPAWDEELEFYSIKVPDGPLTSRLQHIKVGEQIILRPKPVGTLVIDALLPGKRLWFLATGTGIAPFASLMREPEAYEKFDEVIMMHACRTVAELEYGRQLVEALQEDPLIGELVEGKLKYYPTTTREEFHHMGRITDNLASGKVFEDLGIAPMNPETDRAMVCGSLAFNVDVMKVLESYGLREGANSEPREFVVEKAFVGEGI”, which “soluble on expression in E. coli” value is on record?
The value was “soluble”.

For “MKINYQELANNIKLWAKELGFQKVGICDVDLSQHEAALEQWLEAGYHGSMDWMARHGVMRARPDELHPGTIRVISARMDYLPPKAGFASNLKDPNQAYISRYALGRDYHKLIRNQLKKLGQKIEEEVEQLGYRPFVDSAPILERPLAEKAGLGWTGKHSLLLDKNAGSWFFLGELLVDIPLPVDTPVENQCGKCTACISSCPTNAILENGVIDARRCISYLTIENSGIIPEEFRSLMGNRIYGCDDCQLVCPWNREAEITQQADFHRRSSLGNSDLISLFSWDESTFLKNMEGSAIRRIGHIQWLRNLSIAMGNAPHSEAIISALQDRLGLDENLDIHIQWAIKQQSLVITSNRKEQRLIRIIEKGLPRDA”, which “soluble on expression in E. coli” value is on record?
The value was “not soluble”.

For “GSPGGSLFVALYDFVASGDNTLSITKGEKLRVLGYNHNGEWCEAQTKNGQGWVPSNYITPVS”, which “soluble on expression in E. coli” value is on record?
The value was “soluble”.

For “MTKPSVGINGFGRIGRLVLRAAVEKDSVNVVAVNDPFISIDYMVYLFQYDSTHGRFKGTVAHEGDYLLVAKEGKSQHKIKVYNSRDPAEIQWGASGADYVVESTGVFTTIEKANAHLKGGAKKVIISAPSADAPMFVVGVNHEKYDHANDHIISNASCTTNCLAPLAKVINDNFGIIEGLMTTVHAVTATQKTVDGPSGKLWRDGRGAGQNIIPASTGAAKAVGKVIPELNGKLTGMAFRVPTPDVSVVDLTARLEKPASLDDIKKVIKAAADGPMKGILAYTEDQVVSTDFVSDTNSSIFDAGASISLNPHFVKLVSWYDNEFGYSNRVVDLISYIATKA”, which “soluble on expression in E. coli” value is on record?
The value was “soluble”.

For “MAAAAVSSAKRSLRGELKQRLRAMSAEERLRQSRVLSQKVIAHSEYQKSKRISIFLSMQDEIETEEIIKDIFQRGKICFIPRYRFQSNHMDMVRIESPEEISLLPKTSWNIPQPGEGDVREEALSTGGLDLIFMPGLGFDKHGNRLGRGKGYYDAYLKRCLQHQEVKPYTLALAFKEQICLQVPVNENDMKVDEVLYEDSSTA”, which “soluble on expression in E. coli” value is on record?
Its value is “soluble”.

With “GFNYSITGNIATFKNKITELPDNVRSVYGGNGMLDDIIGRPRNSIYGYVADGIFKTQEEVDNSPQQAGKGLGRIRYKDLDGDGRITQDYDRTWIGVSDPDFTYGLNLQASYKNVDLALFFQGVHGGDVWDSWIEYSDFWNIQDVNNTNHLKGVFNAWSPQNPDSNIPALSTRNTNDEKRTSTYFLKDGSYLKLRTIELGYTFPESMVKKAMISRLRAYVSANNVFTIKKWWDSNRFSGPDPEIRDFGYVIPFTATVGVNITF” as the sequence, how does the “soluble on expression in E. coli” value read?
The value was “not soluble”.

For “WYCLISHGTRPKYWFDIEVYRQGYYPRCGQLRSWIARKDGIWFTRKYHSPPGHVLDWKIQ”, which “soluble on expression in E. coli” value is on record?
Its value is “not soluble”.

With “MNIKKHLPWLGALLPIINAQADTNPNVVIIYIDDMGIGDIGCYGGKFVATPNIDKLAQDGLLFNQYYSSAPVSSPSRCGLTTGLFPIEVGINTFLNDKASNKRCEQRNYLDDKLPSMARAFQNAGYATGHIGKWHMGGGRDVHNAPSIKNYGFDEYLSTYESPDPDPAITASKWIWCDNDSIKRWKRTEYFVDKSIDFIKRHKDSPFFLNLWPDDMHTPWVPEFKQKERKSWETKEAFSPVLGEMDKQIGRFIKALDDMGLSENTIIIFTSDNGPAPSFKAVRSAYLRGTKNSLYEGGIRMPFIVKYPKKIKPGRVNNSSVLCAVDLYPTLCSVAGIKTEKNYKGDGQNYAKVLLGKSEAKRKTDLMWDFGRNKHFGFPGNPYDRSPHLAIRSGKWKLLVNGDGSDAQLYDMELDKFEKNNIAGEHPELVAKLSKKVCEWYAQNKDKGLQTDLLEHHHHHH” as the sequence, how does the “soluble on expression in E. coli” value read?
The value was “soluble”.

Which “soluble on expression in E. coli” value does the source give for “MTSPFKVVAVSGGTYRPSRTLVLTQALIAELGQSLPIDSRVIELTDIAAPLGATLARNQAPAELQAVLDEIESADLLLVASPVYRGSYPGLLKHLFDLIDLNALIDTPVLLAATGGTERHALVLDHQLRPLFSFFQAITLPIGVYASEADFDNYRIVSEPLKARIRLAAERAAPLFGGRSELLKIALEHHHHHH” here?
Its value is “not soluble”.

Which “soluble on expression in E. coli” value does the source give for “MSFNLSVIGAGLPVAQSTTTLIDALRTHRMAVVQAPPGTGKTTLVPPIAHNVTGGRVIVVAPRRVAVRAAAHHLVQLDQSSCDQPSTHRVGYTIRGERSRGDLVEFVTPGVLLRRLISNPELDGVSAVVVDEVHERQLDTDLVLGMLVELRELRDDLTVIAMSAT” here?
The value was “not soluble”.

With “MGSDKIHHHHHHMTKDDQKELGKTLWAIADQLRGSMNADDFRDYMLSFLFLRYLSDNYEAAAKKELGSDYPDAKTIGNSDKTPLSVWYASNPGDVAAFEQQMRRKAHYVIKPKYLWGNIVNLAKKQNHDLLDTLQQGFKHIEEDSFESEFQGLFSEINLASDKLGRKYDDRNAKLCSIISEIARGMALSAKTDSLGDAYEYLIGQFAAGSGKKAGEFYTPQEISNILSAIVTLDSQEPKTGPRGKLDSVFDFACGSGSLLLNIRNRMTNSGGSIGKIYGQEYNVTTYNLARMNMLLHGVKDTEFEIYHGDTLKNDWDWLRETNPAKKPRFDAVVANPPFSYRWEPGEAMAQDARFKNHGVAPKSAADFAFLLHGLQYLKDDGVMAIILPHGVLFRGGKEADIRRKLLDDGHIDTVIGLPANLFYSTGIPVCILVLKKCKKPDDVLFINAAGHFAKGKRQNQLTDEHIQRIVNTYQNRNKQDRYSRCVSMKEIADKDYNLNISRYVSTAEADKEIVLEAVHADLTAIESRLEESKKRHNAFLVELGLKPLP” as the sequence, how does the “soluble on expression in E. coli” value read?
The value was “not soluble”.

With “MNRISTSSVNSSFSYSAPAEEAQNRVSSAPTNSSPPGTTTAVAQASEGQKKPGAVLSMQAQRLRQLCESSSYQYRQNALLAKSFDAQRLDINTQAGPSNSPHLNALNKLQQRDFKPAAGGLEIPFTPKSLLGGGKRVYQIGSSSRDVQVCPRGAGAALRQEIADKQLMVNHLTDELQDAIDEANQAEIANTSQQLRQARSDLAELQRRFAVLGNEDRRINQ” as the sequence, how does the “soluble on expression in E. coli” value read?
Its value is “not soluble”.

Which “soluble on expression in E. coli” value does the source give for “MRSLTHIAKIELPPVRRVTYVKHYSIQPANLEFNAEGTPVSRDFDDVYFSNDNGLEETRYVFLGGNQLEARFPEHPHPLFVVAESGFGTGLNFLTLWQAFDQFREAHPQAQLQRLHFISFEKFPLTRADLALAHQHWPELAPWAEQLQAQWPMPLPGCHRLLLDEGRVTLDLWFGDINELISQLDDSLNQKVDAWFLDGFAPAKNPDMWTQNLFNAMARLARPGGTLATFTSAGFVRRGLQEAGFTMQKRKGFGRKREMLCGVMEQTLPLPCSTPWFNRTGSSKREVAIIGGGIASALLSLALLRRGWQVTLYCADEAPALGASGNRQGALYPLLSKHDEALNRFFSNGFTFARRLYDSLPVKFDHDWCGVTQLGWDEKSQHKIAQMLSMDLPEELAVAVEANAVEQITGVTTNCSGITYPQGGWLCPAELTRNVLELAQQQGLQIYYQYQLQDLSRKDDCWLLTFAGDQQATHSVVVLANGHQISRFSQTSSLPVYSVAGQVSHIPTTPELAKLKQVLCYDGYLTPQNPANQHHCIGASYHRGSEETAYSEDNQQQNRQRLIDCFPHAQWAKTVDVSKKEARCGVRCATRDHLPMVGNVPDYEATLVEYASLAEQKDKAVSAPVFDDLFMFAALGSRGLCSAPLCAEILAAQMSDEPIPMDASTLAALNPNRLWVRKLLKGKAVKAG” here?
The value was “not soluble”.

With “MSNVKHSKLLILGSGPAGYTAAVYAARANLKPVLVTGMQQGGQLTTTTEVENWPGDAEGLTGPALMERMKEHAERFDTEIVFDHINSVDLSSRPFRLTGDSQEYTCDALIISTGASAKYLGLESEEAFKGRGVSACATCDGFFYRNQKVAVVGGGNTAVEEALYLSNIASEVHLVHRRDSFRSEKILIDRLMDKVANGNIVLHTHRTLDEVLGDEMGVTGVRLKDTQSDMTENLDVMGVFIAIGHQPNSQIFEGQLEMKNGYIVVKSGLEGNATQTSIEGVFAAGDVMDHNYRQAITSAGTGCMAALDAERYLDSQGK” as the sequence, how does the “soluble on expression in E. coli” value read?
The value was “soluble”.

For “MVYYIYHSAFVIEVEKSILIFDFYKFPSNKKKEKEEFFNRFIKRIDKKVYIFSTHSHSDHFNKEILTWLEMNENIKYILSDDIRIYKHKNFYFTKEGDSFELDNLKISTFGSTDLGSSFYVNTENKNIFHSGDLHFWHWEDDTPEEEKTMYDAYMVQLEKIKKLDRIDIAFVPVDPRLGVNTLEGVELFYKILKPKIIIPMHFSDDYSQMKNFIEKFKYNDDVKIIEIKDSMEKVLELEHHHHHH”, which “soluble on expression in E. coli” value is on record?
The value was “not soluble”.

Which “soluble on expression in E. coli” value does the source give for “MGSDKIHHHHHHMNKRRNGLSSRSSTKGITTITIDPLMLVEMMHIHDSAFPIGGYTHSFGLETYIQRDIVKDENSLIQWCRTYLYDNLGYGDGILLKETLEVLKKSGSLAAIIEVDRLAHAQKLARESREGSLKMGRQFLQTVLPLQEDESLSQWAQLIRAKEAHGHYATTYGVFSYTRAYPDQMTMIAFLYSSVANLVHNAVRAIPLGQSTGVRVIHQLHEDCLYVAQQVVARSLNDLSNHAIGIELASMEHEHLHSRLFIS” here?
Its value is “not soluble”.

With “MGSSHHHHHHSSGLVPRSGHMEPRGTKRKAEKTEVEKPLNKLPRAVPSLRTQPSLYSGPFPFYRRPSELGCFSLDAQRQYHGDARALRYYSPPPINGPGPDFDLRDGYPDRYQPRDEEVQERLDHLLRWVLEHRNQLEGGPGWLAGATVTWRGHLTKLLTTPYERQEGWQLAASRFQGTLYLSEVETPAARAQRLARPPLLRELMYMGYKFEQYMCADKPGGSPDPSGEVNTNVAYCSVLRSRLGNHPLLFSGEVDCLNPQAPCTQPPSCYVELKTSKEMHSPGQWRSFYRHKLLKWWAQSFLPGVPHVVAGFRNPEGFVCSLKTFPTMEMFENVRNDREGWNPSVCMNFCAAFLSFAQSTVVQDDPRLVHLFSWEPGGPVTVSVHRDAPYAFLPSWYVETMTQDLPPLSKTPSPKD” as the sequence, how does the “soluble on expression in E. coli” value read?
The value was “soluble”.

With “MQTRATPAPAAPLERFNAAPAEEAAGTLLACLHSRAWADRLVAHRPYPDLPALLAAADEAAYDLSSDDLSEALAAETLPALPEDTYAAAHTALSAAHAAYESRFGHVFVISLDGLSPEETLNHVLAAIRSRLANDPDEERLVASEELRRLAGGRVRRLLGARGTARPATDDPHPANHTKPPPPLEHHHHHH” as the sequence, how does the “soluble on expression in E. coli” value read?
The value was “soluble”.

With “MSRRVATITLNPAYDLVGFCPEIERGEVNLVKTTGLHAAGKGINVAKVLKDLGIDVTVGGFLGKDNQDGFQQLFSELGIANRFQVVQGRTRINVKLTEKDGEVTDFNFSGFDVTPADWERFVNDSLSWLGQFDMVCVSGSLPAGVSPEAFTDWMTRLRSQCPCIIFDSSREALVAGLKAAPWLVKPNRRELEIWAGRKLPEMKDVIDAAHALREQGIAHVVISLGAEGALWVNASGEWIAKPPAVDVVSTVGAGDSMVGGLIYGLLMRESSEHTLRLATAVAALAVSQSNVGITDRPQLAAMMARVDLQPFN” as the sequence, how does the “soluble on expression in E. coli” value read?
Its value is “not soluble”.
